Test: endo-type α-(1-4)L-fucosidase activity (HPLC of PA-labeled substrate)
Format: biochemical, Fucus vesiculosus
Conditions: endo-type α-(1-4)L-fucosidase activity after each purification step, Table 14
Description: The sulfated fucan oligosaccharide 1-(4) as described in Example 2 was used to establish a system for measuring an endo-type α-(1-4)L-fucosidase activity. First, the sulfated fucan oligosaccharide 1-(4) was fluorescently labeled at the reducing end with 2-aminopyridine according to the method as described in Example 2-(4). The endo-type α-(1-4)L-fucosidase activity was measured as follows.
Briefly, 75 μl of 100 mM sodium phosphate buffer (pH 7.0), 7.5 μl of a bovine serum albumin solution (2 mg/ml), 3.75 μl of 4 M sodium chloride, 50.25 μl of water, 6 μl of the sulfated fucan oligosaccharide 1-(4) fluorescently labeled at the reducing end with 2-aminopyridine (10 pmol/μl) and 7.5 μl of an endo-type α-(1-4)L-fucosidase solution were mixed together. After reacting at 30° C. for 3 hours, the reaction mixture was treated at 100° C. for 10 minutes and analyzed using HPLC. As controls, a reaction mixture obtained by a reaction in which the solvent for the endo-type α-(1-4)L-fucosidase was used in place of the enzyme solution and a reaction mixture obtained by a reaction in which water was used in place of the substrate were similarly analyzed. […]

Hydroxyapatite
Specific activity: 10.6 mU/mg
Total activity: 219 mU

Source: patent publication US20050255564A1, “Sulfated fucan” (TAKARA BIO INC, priority 2002, published 2005)
